Laboratory results taken from patent US20210363249A1 (INNATE PHARMA, published 2021).
One block for each molecule: values may come before it.

Key:
[1] = biological target: Human Siglec-7 (human) (UniProt Q9Y286); test: flow cytometry on fresh purified human NK cells gated CD3-/CD56+, isotype control staining
[2] = biological target: T1, Human Siglec-9 (human, UniProt Q9Y336 18-463); test: as above
T1 construct: Expressed on transfected CHO cells and YTS cells; also called huSiglec-9; CD329

[3] = biological target: T1, Human Siglec-9; test: flow cytometry titration on neuraminidase-treated (desialylated) moDCs; goat F(ab')2 anti-human IgG (Fc) PE
Experimental: (§1) moDC were desialylated for 2 hours with 25 mU neuraminidase (Roche Diagnostics).
(§2) Binding on moDCs and neuraminidase treated moDCs was tested in a titration experiment by flow cytometry. Cells were incubated 1 h in Staining Buffer (SB) with primary antibodies at 10 ug/ml and a series of dilution of 1:10. They were washed two times with SB, then incubated 30 min with a Goat F(ab′)² Anti-Human IgG (Fc) PE (Jackson lmmunoresearch), and washed twice with SB.

[4] = biological target: T1, Human Siglec-9; test: flow cytometry titration on moDC against neuraminidase-treated moDC
Experimental: as §1, §2

T1 sequence (Q9Y336 18-463): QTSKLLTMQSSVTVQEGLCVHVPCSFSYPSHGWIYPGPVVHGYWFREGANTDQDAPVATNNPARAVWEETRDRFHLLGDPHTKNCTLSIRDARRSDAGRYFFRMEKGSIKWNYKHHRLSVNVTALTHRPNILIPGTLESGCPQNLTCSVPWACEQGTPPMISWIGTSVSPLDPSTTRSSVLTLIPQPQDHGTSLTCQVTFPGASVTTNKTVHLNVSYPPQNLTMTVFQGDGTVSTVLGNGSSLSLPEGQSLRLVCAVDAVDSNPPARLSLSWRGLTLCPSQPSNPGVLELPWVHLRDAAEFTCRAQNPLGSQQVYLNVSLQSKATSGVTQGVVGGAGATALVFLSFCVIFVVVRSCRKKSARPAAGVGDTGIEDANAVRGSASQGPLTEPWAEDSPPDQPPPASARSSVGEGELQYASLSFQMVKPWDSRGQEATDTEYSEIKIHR
Sequence of Human Siglec-7 (human) (Q9Y286 19-467): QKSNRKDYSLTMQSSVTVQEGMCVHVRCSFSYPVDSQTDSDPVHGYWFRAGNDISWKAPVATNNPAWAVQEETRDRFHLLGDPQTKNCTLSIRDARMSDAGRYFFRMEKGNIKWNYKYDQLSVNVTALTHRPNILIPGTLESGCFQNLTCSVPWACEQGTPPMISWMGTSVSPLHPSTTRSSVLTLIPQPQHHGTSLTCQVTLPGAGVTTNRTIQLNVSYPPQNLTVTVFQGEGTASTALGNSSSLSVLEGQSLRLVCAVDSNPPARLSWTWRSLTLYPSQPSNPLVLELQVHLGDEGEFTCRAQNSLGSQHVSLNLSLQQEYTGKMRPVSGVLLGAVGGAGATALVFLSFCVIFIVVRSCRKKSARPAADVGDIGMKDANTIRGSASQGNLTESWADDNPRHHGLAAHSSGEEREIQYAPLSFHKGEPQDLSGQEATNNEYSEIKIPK

Molecule: Isotype control - APC (antibody)
percent of NK cells in quadrant Q1 (isotype APC positive, isotype PE negative) [1]: 0.975
percent of NK cells in quadrant Q2 (isotype APC positive, isotype PE positive) [1]: 0.34

Molecule: Isotype control - PE (antibody)
percent of NK cells in quadrant Q2 (isotype APC positive, isotype PE positive) [2]: 0.34
percent of NK cells in quadrant Q3 (isotype APC negative, isotype PE positive) [2]: 2.54

B2: mAbA (antibody, V domains shown)
VH: QVQLQQPGAELVKPGSPVKLSCKASYFTFTSYWMHWVRQRPGQGLEWIGEINPSNGHTNYNEKFESKATLTVDRSSSTAYMQLSSLTSEDSAVFYCANGVESYDFDDALDYWGQGTSVTVSS
VL: DIQMTQTTSSLSASLGDRVTISCRASQDINNYLNWYQQKPDGTIKLLIYYTSRLHSGVPSRFSGSGSGTDYSLTINNLEQEDIATYFCQQGNTLPFTFGGGTKLEIK
notes: Anti-Siglec-9
EC50 (read off the curve) [3]: ~0.03 µg/mL
fold enhancement of EC50 after neuraminidase treatment of moDC [4]: 10 fold

Next, values leading:

EC50 (read off the curve) [3]: ~0.09 µg/mL
fold enhancement of EC50 after neuraminidase treatment of moDC [4]: 10 fold
B1: mAbD (antibody, V domains shown)
VH: QIQLVQSGPELKKPGETVKISCKASGYTFTDYSMHWVKQAPGKGLKWMGWIITETGEPTYADDFRGRFAFSLETSANTAYLQINNLKNEDTATYFCARDFDGYWGQGTTLTVSS
VL: DILMTQSPASLSASVGETVTITCRASENIYSYLAWYQQKRGKSPQFLVYNAKTLTEGVPSRFRGSGSGTQFSLKINSLQPEDFGTYYCQHHYGFPWTFGGGTKLEIK
notes: Anti-Siglec-9

EC50 (read off the curve) [3]: ~0.03 µg/mL
fold enhancement of EC50 after neuraminidase treatment of moDC [4]: 10 fold
B3: mAbC (antibody, V domains shown)
VH: QIQLVQSGPELKKPGETVKISCKASGYTFTNYEMNWVKEAPGKGLKWMGWINTYTGESTYADDFKGRFAFSLETSASTVYLQINNLKDEDVATYFCVRDDYGRSYGFAYWGQGTLVTVSA
VL: NIVLTQSPASLTVSLGQRANISCRASESVDSYGNSFMHWYQQKPGQPPKLLIYLASKLESGVPARFSGSGSRTDFTLTIDPVETDDAATYYCHQNNEDPPWTFGGGTKLEIK
notes: Anti-Siglec-9
